This is an account of results in patent US20190338048A1.

The target of assay [1] is CR8071 lambda light chain L1 Y178K (design 3957, System C). Description: SMCA: H1, L1, H2, L2 co-expressed, protein A, LC-MS.
Assay [2] concerns the target CR8071 lambda light chain S122D_E124Q_T131R (L1 of design 3974, system C). The assay is described as above.
Assay [3] deals with CR8071 lambda light chain L1 S122D_Y178K (design 3954, System C). The description is as above.
The target of assay [4] is SGN-CD19a kappa light chain L2 S121K_S131K_S176K (design 3951). The assay is described as above.
The target of assay [5] is Design 3957 L2: SGN-CD19a kappa light chain Q124E_V133D_T178E. The assay is described as above.
Assay [6] has the same target. The description is as above. This is another data set of the same source.
The target in assay [7] is SGN-CD19a kappa light chain Q124E_V133D_L135W (L2 of design 3972, systems B and C). The assay is described as above.
For assay [8], the target named is SGN-CD19a kappa light chain Q124E_V133D_T180D (L2 of design 3971, systems B and C). Described as above.
For assay [9], the target named is SGN-CD19a kappa light chain Q124E_V133D_L135W (L2 of design 3972, systems B and C). Described as above. The source holds these as a separate data set.
The target in assay [10] is SGN-CD19a kappa light chain Q124E_V133D_T180D (L2 of design 3971, systems B and C). Described as above. This is another data set of the same source.
The target of assay [11] is SGN-CD19a kappa light chain L2, design 4320 (Q124K_L135A_T178R). Description: SMCA: H1,L1,H2,L2 co-expressed, protein A, LC-MS.
The target in assay [12] is Design 3951 L1: CR8071 lambda light chain S122D_K129T_S176E_Y178E. The experiment in a line: SMCA: H1, L1, H2, L2 co-expressed, protein A, LC-MS.
Assay [13] addresses SGN-CD19a kappa light chain V133G_L135W_S176D_T180E (L2 of design 3987, systems B and C). The assay is described as above.
The target is the same in assay [14]. The description is as above. The source holds these as a separate data set.
Assay [15] addresses SGN-CD19a kappa light chain L2 S121K_S176E_T178E (design 3954, Systems B and C). The assay is described as above.
Assay [16] has the same target. The description is as above. This is another data set of the same source.
Assay [17] deals with CR8071 lambda light chain L1 S122D_K129T_S176E_Y178E (designs 3951 and 3967, System C). Described as above.
Assay [18] has the same target. Described as above. This is another data set of the same source.
In assay [19] the target is SGN-CD19a kappa light chain L2 Q124E_V133D_T178E (design 3957, Systems B and C). The assay is described as above.
For assay [20] the target is unchanged. The description is as above. This is another data set of the same source.
The target in assay [21] is SGN-CD19a kappa light chain S121K_Q124R_T178R (L2 of design 3967, systems B and C). Described as above.
The target is the same in assay [22]. Described as above. This is another data set of the same source.
Assay [23] concerns the target CR8071 lambda light chain S122D_K129T_S176E_Y178E (L1 of design 3967, system C). The description is as above.
For assay [24], the target named is SGN-CD19a kappa light chain L2 Q124E_V133D_L135W (design 3972, Systems B and C). The description is as above.
In assay [25] the target is SGN-CD19a kappa light chain L2 Q124E_V133D_T180D (design 3971, Systems B and C). Described as above.
For assay [26], the target named is SGN-CD19a kappa light chain L2 Q124E_V133D_L135W (design 3972, Systems B and C). The description is as above. This is another data set of the same source.
Assay [27] deals with SGN-CD19a kappa light chain L2 Q124E_V133D_T180D (design 3971, Systems B and C). The assay is described as above. This is another data set of the same source.
Assay [28] has as its target SGN-CD19a kappa light chain Q124E_V133D_L135A (L2 of design 3980, system B). The description is as above.
The target in assay [29] is SGN-CD19a kappa light chain S121K_V133I_S176D_T178E (L2 of design 3997, system B). The description is as above.
Assay [30] has as its target Design 3954 L1: CR8071 lambda light chain S122D_Y178K. The assay is described as above.
The target of assay [31] is CR8071 lambda light chain L1, design 4320 (T116F_K129T_V133D_S176F). Description: SMCA: H1,L1,H2,L2 co-expressed, protein A, LC-MS.
The target of assay [32] is SGN-CD19a kappa light chain S121K_Q124E_V133D (L2 of design 3974, systems B and C). Description: SMCA: H1, L1, H2, L2 co-expressed, protein A, LC-MS.
Assay [33] has the same target. Described as above. The source holds these as a separate data set.

Read-outs that look alike come from different tables or passages of the source.

In assay [1], “CR8071 heavy chain H1 K145T_S188E (design 3957, System C)” registered a % H1L1 Pairing of 87.2% and a Change in % H1L1 Pairing with respect to wild type of 38.8%.
In assay [2], “CR8071 heavy chain A125R_L143D_K145T (H1 of design 3974, system C)” came in with a % H1L1 Pairing of 59.9% and a Change in % H1L1 Pairing with respect to wild type of 11.5%.
For “CR8071 heavy chain H1 A125R_K145T_S188E (design 3954, System C)”, in [3], the % H1L1 Pairing stood at 89% and the Change in % H1L1 Pairing with respect to wild type came out at 40.6%.
On to “SGN-CD19a heavy chain H2 K145T_S186E_K228D (design 3951)”, for which, in assay [4], the % H2L2 Pairing amounted to 97.1% and the Change in % H2L2 Pairing with respect to wild type came to 25.8%.
As to “Design 3957 H2: SGN-CD19a heavy chain L143R_S188K”, the % H2L2 Pairing in [5] is 85.4%; in assay [6], 99.7%. Further, the values for the Change in % H2L2 Pairing with respect to wild type in assay [5] and in [6] were 31.2% and 20.1%, respectively.
As for “SGN-CD19a heavy chain L143R (H2 of designs 3971 and 3972, systems B and C)”, the % H2L2 Pairing was determined as 99.7% in assay [7], 99.3% in [8], 99.8% in assay [9] and 99.8% in assay [10]. Also, the Change in % H2L2 Pairing with respect to wild type in assay [7] is 45.5%; in assay [8], 45.1%; in assay [9], 20.2%; in assay [10], 20.2%.
With “SGN-CD19a heavy chain H2, design 4320 (L143E_K145T_Q179E_V190F)”, in assay [11], the % H2L2 Pairing was 81.4% and the Change in % H2L2 Pairing with respect to wild type was 21.5%.
Consider “Design 3951 H1: CR8071 heavy chain A125R_S188K”, for which, in assay [12], the % H1L1 Pairing came to 97.5% and the Change in % H1L1 Pairing with respect to wild type worked out at 29.4%.
For “SGN-CD19a heavy chain L124R_S186K (H2 of design 3987, systems B and C)”, the % H2L2 Pairing in [13] amounted to 98.1%; in [14], 99.3%. The Change in % H2L2 Pairing with respect to wild type was 43.9% in [13] and 19.7% in [14].
For “SGN-CD19a heavy chain H2 S188K_K228D (design 3954, Systems B and C)”, the % H2L2 Pairing in assay [15] was 61.8%; in assay [16], 98.7%. Moreover, the Change in % H2L2 Pairing with respect to wild type in assay [15] amounted to 7.6%; in [16], 19.1%.
In assay [17], “CR8071 heavy chain H1 A125R_S188K (designs 3951 and 3967, System C)” yielded a % H1L1 Pairing of 97.5% and a Change in % H1L1 Pairing with respect to wild type of 29.4%. Besides, in assay [18], the % H1L1 Pairing is 96.7% and the Change in % H1L1 Pairing with respect to wild type came to 28.6%.
Turning to “SGN-CD19a heavy chain H2 L143R_S188K (design 3957, Systems B and C)”, the % H2L2 Pairing in [19] was found to be 99.7%; in assay [20], 85.4%. Also, the Change in % H2L2 Pairing with respect to wild type in [19] was 20.1%; in assay [20], 31.2%.
Regarding “SGN-CD19a heavy chain L143E_K145T_Q179E_K228D (H2 of design 3967, systems B and C)”, the % H2L2 Pairing in [21] turned out to be 98.6%; in assay [22], 100%. The Change in % H2L2 Pairing with respect to wild type in assay [21] was 44.4%; in [22], 28.7%.
Regarding “CR8071 heavy chain A125R_S188K (H1 of design 3967, system C)”, in [23], the % H1L1 Pairing came to 96.7% and the Change in % H1L1 Pairing with respect to wild type stood at 28.6%.
As for “SGN-CD19a heavy chain H2 L143R (designs 3971 and 3972, Systems B and C)”, the % H2L2 Pairing was 99.7% in assay [24], 99.3% in assay [25], 99.8% in [26] and 99.8% in assay [27]. For the same substance, the Change in % H2L2 Pairing with respect to wild type was determined as 45.5% in assay [24], 45.1% in assay [25], 20.2% in [26] and 20.2% in [27].
Regarding “SGN-CD19a heavy chain L143R_V190F (H2 of design 3980, system B)”, in assay [28], the % H2L2 Pairing is 82.6% and the Change in % H2L2 Pairing with respect to wild type turned out to be 28.4%.
For “SGN-CD19a heavy chain S188K_K228D (H2 of design 3997, system B)”, in [29], the % H2L2 Pairing stood at 53% and the Change in % H2L2 Pairing with respect to wild type was -1.2%.
As for “Design 3954 H1: CR8071 heavy chain A125R_K145T_S188E”, in assay [30], the % H1L1 Pairing amounted to 89% and the Change in % H1L1 Pairing with respect to wild type was 40.6%.
For “CR8071 heavy chain H1, design 4320 (L143K_F174G)”, in [31], the % H1L1 Pairing was 96.6% and the Change in % H1L1 Pairing with respect to wild type stood at 14.3%.
For “SGN-CD19a heavy chain L143R_K228D (H2 of design 3974, systems B and C)”, in assay [32], the % H2L2 Pairing was 92.6% and the Change in % H2L2 Pairing with respect to wild type worked out at 38.4%. In assay [33], the % H2L2 Pairing came out at 99.8% and the Change in % H2L2 Pairing with respect to wild type is 20.2%.
